# Assay: soluble on expression in E. coli; label from the status in PepcDB or PDB records
row,Sequence,soluble on expression in E. coli
1,MGSDKIHHHHHHVPEQHICTYEYRLANPNPRPIVGRFQLNFTLDVNGCESGTPVLYLEHVQVHATVRYLKRGDLKLTLFSPSGTRSVLLPPRPQDFNANGFHKWPFLSVQQWGEDPRGTWLLMVESVTTNPAATGTFHDWTLLLYGTADPAQSGDPVYSATPATSQGVLSRVHQLTSQILITIAIHLVVNA,not soluble
2,MFYDLAIGIYDLLVHLAAPFSRKPRKMMKGHWVVYDLLRQQVEKDERYIWFHAASLGEFEQGRPLIESIRERYPDYKILQTFFSPSGYEVRKNYRGADIVCYLPFDKPRNVKKFLDIVNPCMAFFIKYEFWKNYLDELHKRRIPVYSVSSIFRKDQIFFKWYGGTYRNVLKDFDHLFVQNEASKRFLAKIGITRVTVVGDTRFDRVLQIREQAKELPLVEQFKNGAFTFVAGSSWGPDEDLFIEYFNSHPEMKLIIAPHVIDENHLVEIIGKLKRPSVRYTRADEKNVRKADCLIIDCFGLLSSIYRYGEIAYIGGGFGVGIHNTLEAAVYGIPVIFGPKYQKFMEAMQLIEAGGAYSIKDYNELKTLLDRLLTDEAFLRKTGTNAGNYVIGNSGATEKVLHMINFLEHHHHHH,not soluble
3,MGSDKIHHHHHHMKVVSLLTDFGDFYPGVMKGVILSLAPEARIVDITHSVEPQNILQGAFLLYHSFRYFRNAVHVAVVDPGVGSERRALVIEGKNHFFVGPDNGILYPSAVEDGIKAAYSIKEEISELVGELSSTFHGRDIFAPAAAMVVRGDYTYFEEINKEELEKLELFDCSIQGNKVRCRVVYVDRFGNVVTNLREVKGKGFYFRGVEFPFVKTYSDVDVGKPLSLIGSFGTLELSVREGSAAEMLGIKRGGGWIELEVL,not soluble
4,HKGTLYVVATPLGNLDDMTFRAVNTLRNAGAIACEDTRRTSILLKHFGIEGKRLVSYHSFNEERAVRQVIELLEEGSDVALVTDAGTPAISDPGYTMASAAHAAGLPVV,not soluble
5,MGLYEKIVNKEEKISVIGLGYVGMPLAIAFAKYAQVIGFDVDKKKIEIYKSGIDPTKEIGNEAIKNTTVEFTSDETKLKEAKFHIVAVPTPINIDKTPDLTPVESASVIVGRNMARGSYVVYESTVYPGVTEDICIPILERESGLKCGVDFKVGYSPERINPGDKKHTLETIKKIVSAIDDESLDEIAKIYSLVIKAGVHKTSSIKVAEAAKVVENSQRDINIAFMNELAMVFDRMGIDTKEVIDAMNTKWNALGFYPGLVGGHCIGVDPYYFIYQAEKLGYHSQIILSGRKINDGMGEFIANTIIKKLIHVNKVVKKSKVVIFGITYKENCPDTRNSKVVDIIKGLNEYGIEPIVVDPQANREDTKQEYGIELMDIDDVKDADCLVFAVAHDEFKNMAWEQIEKFFKNIDNSEKVIIDVKGIFDKNKIEKLGYCYWRL,soluble
6,MSVTVDDKDVSLNMIRPFEILTLPIPAGVAGKSLVWRFINDYGAISQPLKKNL,not soluble
7,MTLKMGRVKWFNQSEGYGFISPHDGGSDVYVNKTAIANTKNKSLNEGQDVEFSTYRSIHGPSAADVIAF,not soluble
8,MFRLEDFNFHNKTVFLRVDLNSPMKDGKIISDARFKAVLPTIRYLIESGAKVVIGTHQGKPYSEDYTTTEEHARVLSELLDQHVEYIEDIFGRYAREKIKELKSGEVAILENLRFSAEEVKNKPIEECEKTFLVKKLSKVIDYVVNDAFATAHRSQPSLVGFARIKPMIMGFLMEKEIEALMRAYYSKDSPKIYVLGGAKVEDSLKVVENVLRRERADLVLTGGLVANVFTLAKGFDLGRKNVEFMKKKGLLDYVKHAEEILDEFYPYIRTPVDFAVDYKGERVEIDLLSENRGLLHQYQIMDIGKRTAEKYREILMKARIIVANGPMGVFEREEFAIGTVEVFKAIADSPAFSVLGGGHSIASIQKYGITGITHISTGGGAMLSFFAGEELPVLRALQISYEKFKEVVK,soluble
9,MKENDLIPNVKVMIDVRNMNNISDTDGSPNDFTSIDTHELFNNKKILLISLPGAFTPTCSTKMIPGYEEEYDYFIKENNFDDIYCITNNDIYVLKSWFKSMDIKKIKYISDGNSSFTDSMNMLVDKSNFFMGMRPWRFVAIVENNILVKMFQEKDKQHNIQTDPYDISTVNNVKEFLKNNQL,soluble
10,MSNTQAERSIIGMIDMFHKYTRRDDKIDKPSLLTMMKENFPNFLSACDKKGTNYLADVFEKKDKNEDKKIDFSEFLSLLGDIATDYHKQSHGAAPCSGGSQ,not soluble
11,MIKHLVAPLVFTSLILTGCQSPQGKFTPEQVAAMQSYGFTESAGDWSLGLSDAILFAKNDYKLLPESQQQIQTMAAKLASTGLTHARMDGHTDNYGEDSYNEGLSLKRANVVADAWAMGGQIPRSNLTTQGLGKKYPIASNKTAQGRAENRRVAVVITTP,not soluble
12,MTNSEPRRMTCDSEVVWKKLQDGLDVAYRRENMAPKDYMTLYTSVYDYCTSITLSTSRRDGEDGRAESSTPARTAGADFVGHEMYQRVEEYVKAYVIAVCEKGAELSGEDLLKYYTTEWENFRISSKVMDGIFAYLNRHWIRRELDEGHENIYMVYTLALVVWKRNLFNDLKDKVIDAMLELIRSERTGSMINSRYISGVVECLVELGVDDSETDAKKDAETKKLAVYKEFFEVKFLEATRGFYTQEAANFLSNGGNVTDYMIKVETRLNQEDDRCQLYLNSSTKTPLATCCESVLISNQLDFLQRHFGGLLVDKRDDDLSRMFKLCDRVPNGLDELRKSLENHIAKEGHQALERVAMEAATDAKLYVKTLLEVHERYQSLVNRSFKNEPGFMQSLDKAATSFINNNAVTKRAPPQAQLTKSAELLARYCDQLLRKSSKMPDEAELEELQTKIMVVFKYIDDKDVFSKFYTKMFSKRLISELSASDEAEANFITKLKSMCGYEYTARLSKMVNDTQVSKDLTADFKEKKADMLGQKSVEFNVLVLSSGSWPTFPTTPITLPQQLSKTIEIFGQFYNEKFNGRRLTWVYSQSRGEITSTAFPKKYVFTATTAQMCTMLLFNEQDSYTVEQIAAATKMDEKSAPAIVGSLIKNLVLKADTELQKEDEVPMTATVSLNKAYMNKKVRVDLSKFTMKQDAVRDTENVQKNVEEDRKSVISACIVRIMKTRKRVQHQQLMTEVITQLSGRFKPKVEMIKRCIGSLIEKEYMLRTEGQKDLYEYLA,not soluble
13,MSLKVALLQIDTVVGDIVGNAARIADAVREAASLGARLCVTPELALCGYPPRDLLLQDDFVPACRKALEALAQQLRDLPPVLVGAPVPNPSPVGNPIHNCAVLLREGKVTVATRKVLLPNYDVFDERRYFESGVGCGVVTIDGWRFGVTICEDVWNDKTFWQEHRHYENDPVADLMAGGADAILNLSASPFTLGKQAVRERMLSRVAFRYRVSVLYANQVGGNDDLVFAGKSIAFDATGTLIARGRSFAEDIVMVDVAQATGTITAEPTSDEEQVWKALVLGTRDYARKCGFDGAVLGLSGGIDSALVAAVAAEALGPDKVLGVLMPSPHSSEGSVTDALALASSLGIATCTIPIGDLMHGFEAALAQAFAGREADVTEENIQSRIRGNLLMALSNKQRRLLLTTGNKSELAVGYCTIYGDMAGGLAVIADLPKTLVYRVAHWLNERDTSHGHEGREARETIPSAILTKEPSAELRPGQRDSDSLPPYDVLDGILERLVELRRSAADIVAEGYDVETVRKVLRLVCNAEFKRRQAPPGLKVTDRAFGTGWRMPVAARVNLGEGHHHHHH,soluble
14,MAHHHHHHMAKNDIWTPLESNPDSLYLYSCKLGQSKLKFVDIYGFNNDLLDMIPQPVQAVIFLYPVNDNIVSENNTNDKHNLKENFDNVWFIKQVKIITLCNMNNILPILYVCFNSIELKNNKSIENLHHEFCGQVENRDDILDVDTHFIVFVQIEGKIIELDGRKDHPTVHCFTNGDNFLYDTGKIIQDKFIEKCKDDLRFSALAVIPNDNFDII,soluble
15,MGSDKIHHHHHHMFSDMTLLQYINSEDRGFFLPDMGTNGLFLINKKAYEVYDSVDLQLELAKTMDKYFESDFIYSFCDGITFCETLGLETLRPDYDFPSVLTHTITDRDKLRKLDVPDPYTSGRMPLNIESLSVISKSIKKPLYESIQGPFTLAGQLAGATQLLRCIITDKKFVEELLEFTTELVRRYAVAANKAGAKYISIAEPTSVTLSKDRFDEFIVKNLNKIYNELDCWKGMHICGDTRELLDNMLSCNIDAVSLDQILDYEEIAPMIPRDIVLIGNLDPIKLLGRSKPDKIRRETLKLLKKMRRYDNFLCDFGCNCLNTTPVENLQAAIKAGRISYKELDRIDIDEL,not soluble
16,MGHHHHHHSHLRHKEPGSGSGGGVYWVDSQQKRYVPVKGDHVIGIVTAKSGDIFKVDVGGSEPASLSYLSFEGATKRNRPNVQAISSRL,not soluble
17,MGSDKIHHHHHHMLTMIQQYHIKHLNFHKGKSLRSIAEETGHDFRTVKKYAEQTDFNEIRKPKRGRPSKLDPVKPIIDAWLKEDLNRPVKQRHTARRIYDRLCDEHQDIFNACERTVRTYVSARKKELYGEEEGYLPLEHPAGEAQVDFGEIVMIEQGQKVKGYELILSLPYSNAGYPQIFRGQNQECLLTGLKDIF,not soluble
18,MFRISLEEFEGPLDLLLFFIKRDELDIYNIPISKITGDFIAYIHAMRRLNLEVAAEFIYMASMLMSIKARMLLPRAEPVDGEADEFDPRTELVQRLLEYKRIKEGASELELMALDRERMFPRGYFEELEPAVIDEMDEPVNRPTLYHLMLAYQSVLDNMPKVRTQNVTDAPVTVEEQSALIMARLGERLQVSFTSLFQEFREAIVIVVTFLAVLELCRNRKISVIVKEGVNDFWISQRDHAE,soluble
19,MAHHHHHHMSDEGFEDLFILDTDPEELYEELGPIGVGNYGSVIKARNRHTQEITAIKLVLLVDKDERDFVQREISILKHCRHPNIVHYYGAHKSLSKLWIVMEYCEGGSIDMVYKVLRHPLPEPLIAYVCRQVLLGLQYLHANRKIHRDIKGGNILLTRDGGVKLADFGVSTELSHSLSRRNTFVGTLLWMAPEAILELDYDEKADLWSLGITLIEMAEGAPPYIDTHPARALFMIPKMDPPSLQDKERWSPQMTLFLKRLLTKDHNARPTATTMLNDPFVLPENIGTQEQLKAVIDEVLAKKASIDPQRMRDYTDSSATFVERTSSDGGGGDDHSTDSRDEVQPHLTAKGLTNAPANSIEALDGAGTHLFFQDGTLLPLPMLYTQDISFDELCVGEELNGPFSLPVPSVESLLVPPEQQSTACHGGEALAHTMHVTAKLKEMLYYHKQLPYCRGLTDAEAAKSREMQLKYGSVLKSVYRL,not soluble
20,GSRVALVTGANRGIGLAIARELCRQFSGDVVLTARDVARGQAAVQQLQAEGLSPRFHQLDIDDLQSIRALRDFLRKEYGGLNVLVNNAAVAFKSDDPMPFDIKAEMTLKTNFFATRNMCNELLPIMKPHGRVVNISSLQCLRAFENCSEDLQERFHSETLTEGDLVDLMKKFVEDTKNEVHEREGWPNSPYGVSKLGVTVLSRILARRLDEKRKADRILVNACCPGPVKTDMDGKDSIRTVEEGAETPVYLALLPPDATEPQGQLVHDKVVQNW,soluble
21,MKDGEAATGQAASRPKRADARRNEKNLLDAAAAVFVRSGVEAPVRDIAAEAGVGTATIYRHFPTRADLIIGVYRHQVEACAEAGPALLASSPTPYAALAGWIDLFVDFLVTKHGLAAVLQSDSAGFETLHAYFLDRLVPVCTDLLAAATDSGEIDTDVPPLALMRGVGNLCIGAETPNPSYDARQLVRILIAGLRAAD,not soluble
22,MAHHHHHHMRTSRGFCMSMWDSPAFEHNPLSRYWKRMMKQNGETLTAQSIPRHIHGYIEASCPRTEGLVRWFPYKKEITVDGRYVPTISDAIYSYYFPRELNDDERVKYVAIKTGRSELEVAEEVFLMRKMKLFVAQLLRNKLRSRPLRMPEGVDYSGIERRYTLGISRVAQAMGMSMYGTQSYDPVIVYSPYCDIGDCIDCICTKQLRTATQYLLCEVAVHRGIARSRMTDVTSEPKEPLSHVEPCLFEFIKLRLAILALVAKQEHYVVDHLFDGGHRYGGCLIHLFPSPLDPEIIDHEVNHIELDLDLAQKWMKHYYDHYVAPRRSG,not soluble

# From the DeepSol protein solubility set
